According to paper doi:10.1101/2021.07.15.452438 (bioRxiv, 2021):
Read-outs that look alike come from different tables or passages of the source.

Tests used:
BRD4-ET domain (for ITC) [1] = molecular target: T1, BRD4-ET domain (for ITC) (UniProt O60885 600-678); assay: ITC
BRD4-ET domain (for ITC) [2] = molecular target: T1, BRD4-ET domain (for ITC); assay: ITC; remark: listed apart in the source
GST-BRD3^562-640 = GST-BRD3^562-640 (UniProt Q15059 562-640); assay: pull-down
GST-BRD2^632-710 = GST-BRD2^632-710 (UniProt P25440 632-710); assay: pull-down
GST-BRD2^632-710, sequence (P25440 632-710): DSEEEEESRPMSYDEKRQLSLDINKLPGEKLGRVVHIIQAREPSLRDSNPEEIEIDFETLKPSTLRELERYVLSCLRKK

GST-BRD4^600-678 = GST-BRD4^600-678 (UniProt O60885 600-678); assay: pull-down
TurboID-BRD4-ET = TurboID-BRD4-ET (UniProt O60885 600-678); assay: proximity labelling

GST-BRD3^562-640, sequence (Q15059 562-640): as the sequence (P25440 632-710) above, with S8G, R9L, K25R, A40S, E51D, S63T, L73K, R77Q counted along it

Binder: PKVPPIRIQLSRIKPPWVVKG (domain or fragment) [His6MBP-fused ASXL1^567-587]
- Kd (BRD4-ET domain (for ITC) [1]): 1360 nM

B1: His6MBP-ASXL1^537-587 (domain or fragment)
chain: EKKPRLEDRQSFRNTIESVHTEKPQPTKEEPKVPPIRIQLSRIKPPWVVKG
- Kd (BRD4-ET domain (for ITC) [1]): 1300 nM
- Kd (BRD4-ET domain (for ITC) [2]): 535 nM
- binding result (GST-BRD3^562-640): binds
- binding result (GST-BRD2^632-710): binds

B2: His6MBP-ASXL1^537-587 Q575A (domain or fragment)
chain: EKKPRLEDRQSFRNTIESVHTEKPQPTKEEPKVPPIRIALSRIKPPWVVKG
- binding result (GST-BRD4^600-678): binds

B3: His6MBP-ASXL1^537-587 with the motif arginine mutated to alanine (domain or fragment)
chain: EKKPRLEDRQSFRNTIESVHTEKPQPTKEEPKVPPIAIQLSRIKPPWVVKG
- binding result (GST-BRD4^600-678): binds

B4: His6MBP-ASXL2^582-634 (domain or fragment)
chain: EKRPRVTENRQHQQPFQVSPQPFLNRGDRIQVRKVPPLKIPVSRISPMPFHPS
- Kd (BRD4-ET domain (for ITC) [1]): 1100 nM

B5: His6MBP-ASXL3^977-1027 (domain or fragment)
chain: EKRARIEDDQSTRNISSSSPPEKEQPPREEPRVPPLKIQLSKIGPPFIIKS
- Kd (BRD4-ET domain (for ITC) [1]): 2000 nM

B6: ASXL1^Y591X (domain or fragment)
chain: MKDKQKKKKERTWAEAARLVLENYSDAPMTPKQILQVIEAEGLKEMRSGTSPLACLNAMLHSNSRGGEGLFYKLPGRISLFTLKKDALQWSRHPATVEGEEPEDTADVESCGSNEASTVSGENDVSLDETSSNASCSTESQSRPLSNPRDSYRASSQANKQKKKTGVMLPRVVLTPLKVNGAHVESASGFSGCHADGESGSPSSSSSGSLALGSAAIRGQAEVTQDPAPLLRGFRKPATGQMKRNRGEEIDFETPGSILVNTNLRALINSRTFHALPSHFQQQLLFLLPEVDRQVGTDGLLRLSSSALNNEFFTHAAQSWRERLADGEFTHEMQVRIRQEMEKEKKVEQWKEKFFEDYYGQKLGLTKEESLQQNVGQEEAEIKSGLCVPGESVRIQRGPATRQRDGHFKKRSRPDLRTRARRNLYKKQESEQAGVAKDAKSVASDVPLYKDGEAKTDPAGLSSPHLPGTSSAAPDLEGPEFPVESVASRIQAEPDNLARASASPDRIPSLPQETVDQEPKDQKRKSFEQAASASFPEKKPRLEDRQSFRNTIESVHTEKPQPTKEEPKVPPIRIQLSRIKPPWVVKGQPT
- fold enhancement of BRD4-ET binding over full-length ASXL1 (TurboID-BRD4-ET): 3.5 fold
- fold enhancement of ET-domain binding over full-length ASXL1, peptide […] (TurboID-BRD4-ET): ~3 fold
